Test results from article doi:10.1101/2024.08.25.607996 (bioRxiv, 2024).

Biological target: the molecule itself
Test: cryo-EM structure

B1: feline APN ectodomain without the Fc fusion (dimer) (domain or fragment)
chain: DQSKPWNVYRLPKTLIPDSYNVTLRPYLTPNNKGLYVFTGTNIVRFTCKESTNIVIIHSKRLNYTSHQGHMVALSGVGGFHPQPVIVRTELVELTEYLVVHLQEPLVAGRQYEMNSEFQGELADDLAGFYRSEYMENGVKKVLATTHMQATEARKSFPCFDEPAMKATFNITIIHPNNLVALSNMLPRGPSVPFGEDPTWKVTEFETTPIMSTYLLAYIVSEFSYVETRAPSGVLIRIWARPSAINQGHGDYALKVTGPILDFFSQHYDTPYPLNKSDQIALPDFNAGAMENWGLVTYRESALLYDRQSSSSGNQERVVTVIAHELAHQWFGNLVTLEWWNDLWLNEGFASYVEYLGADFAEPTWNLKDLMVLNDVYRVMAVDALASSHPLSTPASEINTPAQISEVFDSISYSKGASVLRMLSNFLTEDLFKMGIASYLHTYKYGNTIYLNLWEHLQQVVDKQPTIKLPDTVSAIMDRWILQMGFPVITVDTQTGTISQQHFLLDPQSVVTRPSQFNYLWIVPISSVRSGSPQAHYWLPGVEKAQNDLFKTTANDWVLLNLNVTGYYLVNYDNENWKKIQTQLQTDLSVIPVINRAQVIHDAFNLASAQKVPVTLALNNTLFLIQETEYMPWQAALSSLSYFKLMFDRSEVYGPMKRYLKKQVTPLFNHFERVTKNWTDHPQTLMDQYSEINAVSTACSYGVPECEKLAATLFAQWKKNPQNNPIHPNLRSTVYCNAIAQGGEEEWNFVWEQFLKAELVNEADKLRGALACSNQVWILNRFLSYTLDPNLIRKQDVTSTLSSISSNVVGQTLVWDFVQSNWKKLFQDYGTGSFSFSNLIQAVTRRFSTEFELQQLEQFKKNNMDTGFGSATRALEQALEKTKANLKWVKENKDVVLRWFTENS
- stoichiometry N: 2
